This test addresses Toll-like receptor 2 (mouse (endogenous in RAW264.7)) (UniProt Q9QUN7).

A value given as a limit tells only on which side of the number the result lay.

Chain of UniProt Q9QUN7 (Q9QUN7 25-784): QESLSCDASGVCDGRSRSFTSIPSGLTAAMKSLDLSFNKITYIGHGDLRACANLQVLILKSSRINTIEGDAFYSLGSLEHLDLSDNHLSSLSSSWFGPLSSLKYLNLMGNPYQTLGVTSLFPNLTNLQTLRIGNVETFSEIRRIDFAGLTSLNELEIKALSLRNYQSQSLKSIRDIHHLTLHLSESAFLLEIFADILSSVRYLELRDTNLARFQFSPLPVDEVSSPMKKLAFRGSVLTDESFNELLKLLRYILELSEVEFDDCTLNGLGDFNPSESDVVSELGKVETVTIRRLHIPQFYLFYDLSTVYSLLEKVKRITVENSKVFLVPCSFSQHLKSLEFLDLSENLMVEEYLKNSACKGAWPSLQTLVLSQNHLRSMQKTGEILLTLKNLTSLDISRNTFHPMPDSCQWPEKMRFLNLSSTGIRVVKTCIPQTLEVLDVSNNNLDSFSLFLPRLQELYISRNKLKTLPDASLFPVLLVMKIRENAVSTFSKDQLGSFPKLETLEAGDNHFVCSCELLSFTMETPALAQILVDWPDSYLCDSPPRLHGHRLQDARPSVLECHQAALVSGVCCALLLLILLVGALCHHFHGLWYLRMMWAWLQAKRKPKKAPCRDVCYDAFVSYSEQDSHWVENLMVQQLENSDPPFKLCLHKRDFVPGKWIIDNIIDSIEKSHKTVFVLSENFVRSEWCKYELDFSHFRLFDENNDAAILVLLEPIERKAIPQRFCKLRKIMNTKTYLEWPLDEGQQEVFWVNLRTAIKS

Take “recombinant Clonorchis sinensis molecular chaperone HscB (natural protein)”: the IL-10 secreted by RAW264.7 macrophages stimulated with 5~20 μg/ml rCsHscB for 12 h or 24 h (ELISA); highest at 20 μg/ml for 24 h (fold over DMEM-stimulated cells) was over 10.

Source of the values: article PMC7549790.
